Here are results for one substance from PMC9835395.

This test concerns the target albumin (on albumin-functionalized agarose resin) (UniProt P07724). Description: pull-down; AF647-labelled eOD or amph-eOD incubated with albumin-functionalized agarose resin for 2 hours at 37°C; resin separated and protein remaining in solution measured.
Chain of UniProt P07724 (P07724 25-608): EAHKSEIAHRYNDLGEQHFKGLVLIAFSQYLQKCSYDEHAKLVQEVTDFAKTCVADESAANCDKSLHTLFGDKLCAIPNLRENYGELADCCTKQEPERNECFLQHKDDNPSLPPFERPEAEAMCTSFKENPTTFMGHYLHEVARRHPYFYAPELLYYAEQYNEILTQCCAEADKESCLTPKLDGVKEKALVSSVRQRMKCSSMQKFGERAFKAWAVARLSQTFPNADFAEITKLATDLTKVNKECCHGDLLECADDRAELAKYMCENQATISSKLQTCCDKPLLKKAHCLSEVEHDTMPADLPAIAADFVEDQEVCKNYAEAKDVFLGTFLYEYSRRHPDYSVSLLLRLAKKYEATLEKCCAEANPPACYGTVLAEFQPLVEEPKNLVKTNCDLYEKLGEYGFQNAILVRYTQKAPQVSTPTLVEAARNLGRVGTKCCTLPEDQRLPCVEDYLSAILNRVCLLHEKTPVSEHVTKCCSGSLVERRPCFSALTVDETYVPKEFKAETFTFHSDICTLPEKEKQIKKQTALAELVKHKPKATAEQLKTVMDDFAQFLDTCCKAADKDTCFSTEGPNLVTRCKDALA

On to “amph-eOD (eOD-GT8 with N-terminal cysteine and C-terminal PADRE, conjugated to PEG2K-DSPE)”, for which the percent of added protein bound to the resin was determined as 60%.
